The domain aggregation screens of Martell et al. (2025)

Assay: soluble fraction after stress (log2 fold change); higher = more stays soluble; pooled small domains, quantitative proteomics
Conditions: stress: 50 degC
In short: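 The stress applied to every library was 50°C. These custom libraries of small protein domains were pooled and measured at high throughput with quantitative proteomics as the read-out. Aggregation propensity is expressed as the base-two logarithm of the fold change in how much of each protein remains soluble. The higher the value, the more of that protein stays in solution.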

Compared with “HMVGDLPPQELRVFELIGDGLSNREIADEMILAEKTIKNYVTSLLQKLGMQRRTEAAAFAARLDER”, “HMVAREAYTTQNLTDVFSISRQAVEKRAKREGWQSVPRKGRGGGKLWVVSSMPAETRDLLASLLLRK” is lower in “soluble fraction (log2)” value: -0.0396 for the first, -0.609 for the second.

Compared with “HMAQMDDPEMVLHIYNKMIQQRLFDTAVGYSYLKDLQEYLQSIPFIRKEDIFPIPVQHPQVEESLRKAK”, “HMELADLPSAQIREILAYVYRAPLEKRRDPSIHWLLIAAHKLTLPLLDRLDPADARALGERYGADYP” is higher in “soluble fraction (log2)” value: -0.367 for the first, 0.132 for the second.

“HMVGGIAIGQFNVPRGSVKVTAGGRLLQEGLDYTVNYQAGRVQILDESLKNSNVPIEISTESNS” and “HMQILLASHAELAKGILSAVELIAGTQQNLKAYSAYTEAVDVHFKDQMLQDLNKMDPEDEVIL” are within 0.2 log units of each other in “soluble fraction (log2)” value: 0.229 for the first, 0.0294 for the second.

First: HMTAGTTALNKLQQGMSTQQVQAALGTPSDRTVKESGVELWKYYYPYENMLLYLKFRDGHLVSFGTN
Second: HMSLSDADVERLLEVAIDIESLEEREGLYYQANESEPYSGWGKLMYDSGQVERLVPYKDGRWEGLWTIW
The “soluble fraction (log2)” value of the first is higher: -0.0161 for the first, -1.04 for the second.

First: HMDHAHWEEHEVKLLLTLAIQEKEKFNWNQFGLTREGWRNIYPHFPQYSRKQINNKFDFLKQKYRAWKDS
Second: HMSNEWIEISAKTVDDAINEGLIRLGTTTDKMDVEVLEKESAGFLGFIGKHDAKIRVRFKEV
The “soluble fraction (log2)” value of the first is lower: -1.84 for the first, 0.105 for the second.

Compared with “HMPSLSREREAAILEMIERRPSTAEDVASGLGLAVNEVIKLLDGTALRGSVETFQSGEEIYYTRKR”, “HMYTVQQLARLAGITPRTLRHYDAIGLLKPTRVGENGYRYYGSEALLRLQSILLYRELDMPLEDIRRVLDS” is lower in “soluble fraction (log2)” value: 0.144 for the first, -3.15 for the second.

Going from “HMGVISRVITFWQNGFTVDDGPLRAFDDPANMAFMESIGRGEAPAELAPKTRTQRVNINLVQRHEPYSAPK” to “HMVKDIEFSLPLEQDYYKVLISVKDSQGKRQVYEELHRAGDTVYAAVRYYGSGELEIHLNGKFYKTIK”, the “soluble fraction (log2)” value falls from -0.0726 to -0.521.

“HMTSQVTVHVVGAVEKPGVVTLDAPSRVQDALEAAGGALPEAELSGVNLARELFDGEQIVVPAQGEDV” and “HMGPTLSPAEKRVFEVIPYDAILQDMVIRAAELPPGEVLAALTTLELKGLIKRLPGNLVMRRAR” are within 0.2 log units of each other in “soluble fraction (log2)” value: -0.0113 for the first, 0.0188 for the second.

Compared with “HMENTGFKDKKGNYIFDGDIVKDILGNIMKVEFKHFKWQLIPLNKTAFNMPMVDWLDLETETLNAEIIGN”, “HMINIDESIDESLSEDDAVLDLLERASASFTKAQEALLEGDLGRYQTLIEQADRLVAKALELLDEKN” is higher in “soluble fraction (log2)” value: -2.13 for the first, -0.457 for the second.

Compared with “HMEPIAFDNMHNRGIKGTNDWTQYEITLPFSAEAKKIFVAGLLVGKGKAWFDKFEVFLDGKNITDVAQI”, “HMNVAVSEADAKAAALERVSGATEADIRMELELDDGYYVYEGDIIYQQKEYEFEIDAQTGKFLKWSEER” is lower in “soluble fraction (log2)” value: 0.124 for the first, -0.14 for the second.

Going from “HMKRLLLPGDLAGVRRHLLDRENSFHILRVLRLARGSTIEAMDDAGNRFSATLAGVKAGRALFDLAAKI” to “HMQIAGLDDIDNRIIDLLLKNGRASYSEIGAAVGLSRTAAKNRIRALEASGIIRGYQAILDPQA”, the “soluble fraction (log2)” value rises from -1.54 to -0.205.

First: HMTSGPAWPALSAQQRSVLAPLQRDWHTIDAARKAKWLEVAARFPSMPAEERQRVQERMAEWA
Second: HMELPPLQPGQPIDGRVEQQIRAGYYVVSVRGRGYEFQLPESARPGDLLRMVYLNDHPRLTFALLRIDNAN
The “soluble fraction (log2)” value of the first is higher: -0.0518 for the first, -0.98 for the second.

Going from “HMLPVQGEEVAPGLYKFDFPFLADKRVWEKTINAFKAEHPELKVNYIYTGPDELNSKKKTHVLVYVFTES” to “HMSDIPEGYMSRVQLGDEWGIHLATFDKAVIAVKEKLGTVVFIDKSNNTTAGYSPEQQTIIYDWLAEN”, the “soluble fraction (log2)” value falls from -0.0974 to -1.82.

Going from “HMAAEEAFPGGRIVQNAEENRLQILFDEIPGEDVRAALKSHGFRWSPKNKAWQRQLTQNAEYDARRILGI” to “HMKQVSDTGAIDAAIREVMDANPDKVAEYRSGKDKLFGFFVGQIMRAMAGKAAPVVVNDRLKALLD”, the “soluble fraction (log2)” value rises from -0.00473 to 0.355.

First: HMYIVVPDLSKKDINEVANILAAQSLRFQVIDSANFRSDFPKNAVISQKPLAGSEVKVNKKIYLQLNPS
Second: HMVITDPFFLEPENLVKDAVALMEKYRISGVPITKKGKLVGILTNRDLRFESNYEQPIANVMS
The “soluble fraction (log2)” value of the first is lower: -0.345 for the first, -0.0305 for the second.

Going from “HMTYADTRDLLIRRGMELLTEQGIAATSIERVLQSTGIPKGSFYHYFATKHDFTLAVMDAYHHY” to “HMEASVNAPMPGKIVSVSVSEGQQVNAGDVLLILEAMKMQNEITADAAGTVKAINVNAGQSVKNGDSLVIL”, the “soluble fraction (log2)” value rises from -0.0315 to 0.469.

First: HMRNANENTLKDLPVAVPNIHVSNIEEKKDFHLIQLEYSQEFDPREDLFNFAVNSSWVILKMTPT
Second: HMLSLKAQVYEIIRQKILQQEYALGEKINIDTVADELKISNSPIREALMMLSQDGLIEMVPNNGARVI
The “soluble fraction (log2)” value of the first is higher: 0.422 for the first, -0.772 for the second.

Going from “HMEIVSTEEKIKRAAEQVFLLRGLEGARMQEIADVAGINKAMLHYYFRNKETLFDVILSEKL” to “HMDLGTHMRLIVPTGMRVDHIVYESNGKNISVDHDRSISVRWNGEVVSIDVSPLPSRPDFDVLIYMSPK”, the “soluble fraction (log2)” value rises from -1.51 to -0.0114.

Compared with “HMKTLNKRQQDIINLAREEGFVTVEHLSEYFKVTQQTIRRDLGYLSENLYLARTYGGAFFQS”, “HMYVPEVPVPDLLGRSEEEAKNLIEDLGLVFKVSKREYSKEYDEGHVMEQSVDEGAKVKENYPVEVVISR” is higher in “soluble fraction (log2)” value: -0.872 for the first, 0.196 for the second.

“HMSETLESYTTRLKQLEEIADSFQGVDKTFAIQAGREIRVMVVPEQISDDDMILLARDISNQIEENLDY” and “HMDDHKQHLIDFYHSRKRMPTYTEMMALFGYKSKNAVARLVEKMIDAGIVTKDKLGKLLPTTLFDSVPL” are within 0.2 log units of each other in “soluble fraction (log2)” value: -0.122 for the first, 0.0577 for the second.

Compared with “HMSHGFFELKTTQKEALIKLLDSHPNFTHTKTEADLTTAFLKLPMDAEQFNKLLFTNGIVLSHLVKRK”, “HMSKQQFLDELAARLREEGAELLVAENLNFYRSYIEEEVAKGRSEEEVLAELGNPALIARSILDAAGF” is higher in “soluble fraction (log2)” value: -0.668 for the first, -0.153 for the second.

“HMAQELPYEKVTMNGKMFYVYHVKAGEGLYLISRTFSVNADEILKFNPSIENGLKSGQVLYIPIK” and “HMQEEELYPRLEEVINQHRGKGEDLIMVLHKAQNLFGYLPRRAQEMVAEGLNVSLNEVYGVITFYNFFST” are within 0.2 log units of each other in “soluble fraction (log2)” value: -0.0691 for the first, -0.0621 for the second.

“HMSPIKAGDLVKITGTKYYRGQTIPSWVKAKNWFVHSVSGDRAVINKSEDGKNAIMSPVKVSNLALVT” and “HMSTPLPTGLPRGTIIEYTVQTDETLAIIAAKFNSTVDDIMTRNKITDPNTIYAGQILKVAINLVTP” are within 0.2 log units of each other in “soluble fraction (log2)” value: -0.0334 for the first, 0.15 for the second.

First: HMDWREMTAWMAELLKRRTGDDVETWNARVRESGAHDEASLRAWLTEQGVTGYAQTLLVMERFGYPDFF
Second: HMRDLVTYVVQVNGKLRGKLEVSPSTDDNSLKTMALELENVQRALEGLSVKKVIVIPGKMVSIAAG
The “soluble fraction (log2)” value of the first is lower: -1.22 for the first, 0.167 for the second.

“HMASIGTATVTADNLRLRSEAGTGAETLTMAPKGAEVTVEEDAGDGWYKVTYGDTEGYMSGEWLKITLA” and “HMSASAIYVRPKDVKEPEEVADYLSGVLELDREKLYKKITDKSQWIALIERKVDNDIAFDIRNKKFKGIEI” are within 0.2 log units of each other in “soluble fraction (log2)” value: -0.209 for the first, -0.0243 for the second.

“HMTVVSVDDQASASSEAIRTKVAGDSAARMSVDAGGKITWGAGSASGDVTLYRSAANTLKTDDTLVAT” and “HMKLTPKQQQIYDFISSFADEHGYPPSVREIAQAVNLKSPATVHFHLKGLREAGYISQAEGKTRAITI” are within 0.2 log units of each other in “soluble fraction (log2)” value: -0.0266 for the first, -0.117 for the second.

First: HMLPPHMEVRAIMILDKRPMALMNIEGEGDGLIVSPGYRFGDGRGRVVSITQTKVVVLWAGTSMEL
Second: HMKTFSFEILADTVKKQRKAKGMTQAELSEATGINRSMIGQMENMTFKPSIEQLEALSQALDFNVIDLYTE
The “soluble fraction (log2)” value of the first is lower: -2.28 for the first, -0.196 for the second.

First: HMGDLDLVTFGQRLRHLRRSRNMTLSELGERVGRAPSQLSLLENGKREPKLSLLTALAKALDVSVEEL
Second: HMNKNQIGTNAGIVWKLLSDNVHWEYDKLKHASGLSDRDLNAAIGWLAREDKIDFDIDEQHDRLFL
The “soluble fraction (log2)” value of the first is lower: -0.75 for the first, -0.395 for the second.

First: HMLMSDEENAEFTKLYRQLVFKLHPDLNPNQTKDEENLWHKVQMAYKGGDLEEMRSLAIILDAQ
Second: HMTFGEMLQYTNRLKEILESNAPQSIKDRRLANLMTDLEQAYGIPILRDQEFEKENPFLMQLYRTIS
The “soluble fraction (log2)” value of the first is higher: -0.0474 for the first, -2.06 for the second.

“HMQPQYSVLFSNIEEKDGGSIITLLQQGNVPYKVENGGTTILVPANRANELRLTLAAQGLPK” and “HMAPETALQILEQIQINPKVTMTDLANLTGYSRRWVAQTMKQLQELNVIKRVGSTKTGYWEIIA” are within 0.2 log units of each other in “soluble fraction (log2)” value: -0.0124 for the first, -0.138 for the second.

First: HMGMTDEELNREEERVVAELEAKDEEELTIYNEEDLTFEETLDLPEGSLMRDRENGMIYLKVLDIWMPY
Second: HMKSYQKITPATEGNYLTTYREGDDIKTYEGVKAMYTPADFDASSVREITPEEHQSYQKAKEQALQEETEQ
The “soluble fraction (log2)” value of the first is lower: -0.54 for the first, -0.225 for the second.

First: HMQTLGADLRALRKARGLTLTDMAETLGRSVGWLSQVERDLSEPSITDLRHMARTLGVSVSMLFS
Second: HMDTYDSIDSILEERHLSRRKLAQAIGLPPSTFQSMMSRKSGMTLEVLMKIVSYLQVSPDAFW
The “soluble fraction (log2)” value of the first is higher: -1.41 for the first, -2.12 for the second.

Going from “HMISKYLRIESDILSAIREGRLKPGDKLPGQSEMRRIYNVSAITVRKAFTDLINDGYLVGVRGSGTYVAKR” to “HMKKIDVEVVRSQLIAWMADNGKSQAEVSKSMGISASALSMFIKGTYTGDNEQIGRKAAALMDLVHRQSA”, the “soluble fraction (log2)” value rises from -0.703 to 0.0121.

Compared with “HMPYLVNGFILEVQSDDNNPVGTLKRRYAVAKNKQGVILLEGEKSFSSNDQILINELKFYIQSNDLKA”, “HMEAISSESIKKMIKSYVSGEDASKPLSDQQIADLLVKEGYMISRRTVAKYRDELGILSSSKRKR” is higher in “soluble fraction (log2)” value: -2.43 for the first, -0.0456 for the second.

With “HMDEFEEGVITYFNSEKGFGFIRESKTKQSVFVHSKQLSSPVQLNDKVKFIVNKGLKGLEATEVSVI” the “soluble fraction (log2)” value was -0.235.
